Reference: paper PMC12646314, “Structure and encapsulation of carbonic anhydrase within the α-carboxysome” (Proceedings of the National Academy of Sciences of the …, 2025)

T1: CsoS4A-CsoS1A minishell (Construct 4, S4A-S1A) (Halothiobacillus neapolitanus, UniProt O85043 1-83; P45689 1-98)
T1 construct: CsoS4A, shell pentamer of H. neapolitanus; CsoS1A, major shell hexamer of H. neapolitanus; Icosahedral shells, T = 3 and T = 4 populations; also called minishells; mini-α-shells; source: E. coli TOP10, purified (sucrose cushion and gradient, HiTrap Q FF anion exchange)
T1 sequence 1: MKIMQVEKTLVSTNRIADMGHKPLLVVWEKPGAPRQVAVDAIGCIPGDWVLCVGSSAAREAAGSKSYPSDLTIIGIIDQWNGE
T1 sequence 2: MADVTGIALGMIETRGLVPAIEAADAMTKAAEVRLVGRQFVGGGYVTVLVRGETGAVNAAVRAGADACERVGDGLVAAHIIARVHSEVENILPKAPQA

B1: Twin-Strep-GB1-CsoSCA (Halothiobacillus neapolitanus carboxysomal carbonic anhydrase) (enzyme)
chain: NTRNTRSKQRAPFGVSSSVKPRLDLIEQAPNPAYDRHPACITLPERTCRHPLTDLEANEQLGRCEDSVKNRFDRVIPFLQVVAGIPLGLDYVTRVQELAQSSLGHTLPEELLKDNWISGHNLKGIFGYATAKALTAATEQFSRKIMSEKDDSASAIGFFLDCGFHAVDISPCADGRLKGLLPYILRLPLTAFTYRKAYAGSMFDIEDDLAQWEKNELRRYREGVPNTADQPTRYLKIAVYHFSTSDPTHSGCAAHGSNDRAALEAALTQLMKFREAVENAHCCGASIDILLIGVDTDTDAIRVHIPDSKGFLNPYRYVDNTVTYAQTLHLAPDEARVIIHEAILNANRSDGWAKGNGVASEGMRRFIGQLLINNLSQIDYVVNRHGGRYPPNDIGHAERYISVGDGFDEVQIRNLAYYAHLDTVEENAIDVDVGIKIFTKLNLSRGLPIPIAIHYRYDPNVPGSRERTVVKARRIYNAIKERFSSLDEQNLLQFRLSVQAQDIGSPIEEVASA
notes: CsoSCA, alpha-carboxysomal beta-class carbonic anhydrase of Halothiobacillus neapolitanus; UniProt O85042; the domain scheme runs from residue 1 to 514; Vector pETM11; TEV protease was used to remove the tags only for DLS; also called HnCsoSCA; source: Superdex 200 for cryo-EM; not shown: Twin-Strep, N-terminal, kept
B2: CsoS1A (the major shell hexamer) (natural protein, Halothiobacillus neapolitanus)
chain: T1 sequence 2
notes: CsoS1A, major alpha-carboxysome shell protein of H. neapolitanus; also called CsoS1A shell hexamer; source: E. coli TOP10, expressed from the minishell construct; in lysate (pull-down) and in purified minishells (cryo-EM)
B3: CsoS4A (shell pentamer) (natural protein, Halothiobacillus neapolitanus)
chain: T1 sequence 1
notes: CsoS4A, alpha-carboxysome shell vertex protein of H. neapolitanus; also called CsoS4A pentamer; source: E. coli TOP10, expressed from the minishell construct, in purified minishells
B4: CsoSCA-His6 (CsoSCA fused to a C-terminal His6 tag) (enzyme, Halothiobacillus neapolitanus, UniProt O85042 1-514, looked up)
chain: MNTRNTRSKQRAPFGVSSSVKPRLDLIEQAPNPAYDRHPACITLPERTCRHPLTDLEANEQLGRCEDSVKNRFDRVIPFLQVVAGIPLGLDYVTRVQELAQSSLGHTLPEELLKDNWISGHNLKGIFGYATAKALTAATEQFSRKIMSEKDDSASAIGFFLDCGFHAVDISPCADGRLKGLLPYILRLPLTAFTYRKAYAGSMFDIEDDLAQWEKNELRRYREGVPNTADQPTRYLKIAVYHFSTSDPTHSGCAAHGSNDRAALEAALTQLMKFREAVENAHCCGASIDILLIGVDTDTDAIRVHIPDSKGFLNPYRYVDNTVTYAQTLHLAPDEARVIIHEAILNANRSDGWAKGNGVASEGMRRFIGQLLINNLSQIDYVVNRHGGRYPPNDIGHAERYISVGDGFDEVQIRNLAYYAHLDTVEENAIDVDVGIKIFTKLNLSRGLPIPIAIHYRYDPNVPGSRERTVVKARRIYNAIKERFSSLDEQNLLQFRLSVQAQDIGSPIEEVASA
notes: CsoSCA of H. neapolitanus, UniProt O85042; called full-length CsoSCA in the discussion; also called full-length CsoSCA; source: E. coli TOP10, coexpressed with minishell constructs, co-purified with minishells; not shown: His6, C-terminal, kept

Key:
[1] = target: the molecule itself; assay: SEC-MALS; Superdex 200 Increase 10/300 GL, 0.70 mL/min, Buffer W (100 mM Tris/HCl pH 8, 150 mM NaCl, 1 mM EDTA), room temperature; injected at 5.6 mg/mL (CsoSCA), 0.9 mg/mL (CsoSCA-N), 1 mg/mL (CsoSCA^ΔC), 1.9 mg/mL (CsoSCA-C)
[2] = target: the molecule itself; assay: cryo-EM structure; single-particle cryo-EM of purified T = 4 minishell/CsoSCA^ΔC (2.36 Å symmetry relaxed) and minishell/CsoSCA-C (3.05 Å); internal density seen at low contour, disordered
[3] = target: T1, CsoS4A-CsoS1A minishell (Construct 4, …); assay: co-purification with assembled minishells (sucrose cushion and gradient, anion exchange), immunoblot; CsoSCA constructs coexpressed with minishell constructs in E. coli TOP10; minishells purified; samples normalised to CsoS1A; anti-His blot; details: partners not purified

Binder | stoichiometry N [2] | also measured
B1 |  | stoichiometry N [1]: 6
B2 | 6 | 
B3 | 5 | 
B4 |  | fold copurified CsoSCA, against minishells with CsoS2 [3]: ≥ 4 fold
